For assay [1], the target named is T1, human properdin (human, UniProt P27918 28-469). Nature of the assay: cell-based or functional assay.
Assay [2] concerns the target T2, cynomolgus properdin (cynomolgus, UniProt A0A2K5V0Z6 29-470).
T2 construct: properdin of cynomolgus serum in the hemolysis assays; also called biotinylated cynomolgus properdin
The experiment in a line: binding kinetics, biotinylated properdin capture method.

Assay [3] deals with T1, human properdin. The description is as above.
Assay [4] deals with T2, cynomolgus properdin. The experiment in a line: binding kinetics at pH 7.4.
Assay [5] deals with T1, human properdin. Nature of the assay: binding kinetics at pH 7.4.
Assay [6] deals with T1, human properdin. The experiment in a line: binding kinetics, biotinylated properdin capture method. This is another data set of the same source.
In assay [7] the target is T1, human properdin. Nature of the assay: sensorgram kinetics (RU), biotinylated properdin capture method.
The target in assay [8] is T1, human properdin. The experiment in a line: cell-based or functional assay. The source holds these as a separate data set.
The target of assay [9] is T1, human properdin. The experiment in a line: Octet bio-layer interferometry; streptavidin biosensors loaded with biotinylated human properdin, construct at 10 ug/mL. Here is the method:
All washes, dilutions, and measurements were performed in Kinetic buffer (FortéBio cat 185032) with the plate shaking at 1000 rpm. Streptavidin Biosensors (Forté Bio Cat:18-5019 lot: 1405301) were equilibrated in Kinetic buffer for 10 min and then loaded with 50 nm of biotinylated human properdin. For the association phase, 10 μg/mL of selected anti-properdin antibody or kinetics buffer blank was added to the biosensors preloaded with biotinylated human properdin, respectively.

The target of assay [10] is T3, Cynomolgus Albumin (cynomolgus, UniProt A2V9Z4 25-608). The experiment in a line: binding kinetics at pH 6.0.
In assay [11] the target is T1, human properdin. The experiment in a line: binding kinetics at pH 6.0.
In assay [12] the target is T4, Human Albumin (human, UniProt P02768 25-609). Nature of the assay: binding kinetics at pH 6.0.
Assay [13] concerns the target T3, Cynomolgus Albumin. The experiment in a line: binding kinetics at pH 7.4.
Assay [14] concerns the target T4, Human Albumin. The experiment in a line: binding kinetics at pH 7.4.
Assay [15] concerns the target T1, human properdin. Nature of the assay: cell-based or functional assay. This is another data set of the same source.

Like-named read-outs stand apart in the source and are kept apart here.

B1: TPP-2951 (Humanized anti-Albumin LVP058 (G4S)3 Linker (7-backmutations)) (bispecific antibody)
chain: EVQLVESGGGLVKPGGSLRLSCAASGRPVSNYAAAWFRQAPGKEREFVSAINWQKTATYADSVKGRFTISRDNAKNSLYLQMNSLRAEDTAVYYCAAVFRVVAPKTQYDYDYWGQGTLVTVSSGGGGSGGGGSGGGGSEVQLLESGGGLVQPGGSLRLSCAASGRISSIIHMAWFRQAPGKERELVSEISRVGTTVYADSVKGRFTISRDNSKNTLYLQMNSLKPEDTAVYYCNALQYEKHGGADYWGQGTLVTVSS
notes: Single chain: anti-albumin VHH, (G4S)3 linker, humanized LVP058 with 7 back mutations
For orientation: Kd means the equilibrium constant for the complex coming apart. Read a low Kd as a tighter complex. As a reminder, the koff is the first-order rate constant of dissociation. The low end stands for a long-lived complex, the high end for a short-lived complex. What is called kon is the rate constant with which the complex forms. A low value points to slower complex formation. Take B1: the “IC50 (read off the curve)” value with human properdin [1] is roughly 30 nM. Further, the dissociation constant Kd was 2.33 nM with cynomolgus properdin [2]; 0.322 nM with human properdin [3]; 2.33 nM with cynomolgus properdin [4]; 0.301 nM with human properdin [5]; 0.301 nM with human properdin [6]. Also, the koff with cynomolgus properdin [2] amounted to 0.00426 s⁻¹; with human properdin [3], 0.000574 s⁻¹; in the assay with human properdin [6], 0.000567 s⁻¹. For the same molecule, the on-rate (kon) with cynomolgus properdin [2] stood at 1.82e+06 M⁻¹ s⁻¹; with human properdin [3], 1.78e+06 M⁻¹ s⁻¹; with human properdin [6], 1.88e+06 M⁻¹ s⁻¹.

B2: TPP-3261 (Humanized anti-Albumin LVP058 (G4S)3 Linker (3-backmutations)) (bispecific antibody)
chain: EVQLVESGGGLVKPGGSLRLSCAASGRPVSNYAAAWFRQAPGKEREFVSAINWQKTATYADSVKGRFTISRDNAKNSLYLQMNSLRAEDTAVYYCAAVFRVVAPKTQYDYDYWGQGTLVTVSSGGGGSGGGGSGGGGSEVQLVESGGGLVQPGGSLRLSCAASGRISSIIHMAWVRQAPGKQRELVSEISRVGTTVYADSVKGRFTISRDNSKNTLYLQMNSLRAEDTAVYYCNALQYEKHGGADYWGQGTLVTVSS
notes: Single chain: anti-albumin VHH, (G4S)3 linker, humanized LVP058 with 3 back mutations
For the molecule B2, the Kd with cynomolgus properdin [2] came to 3.08 nM; in the assay with human properdin [3], 0.485 nM; in the assay with cynomolgus properdin [4], 3.08 nM; with human properdin [5], 0.485 nM. Also, the koff came out at 0.00587 s⁻¹ with cynomolgus properdin [2] and 0.000834 s⁻¹ in the assay with human properdin [3]. Moreover, the kon with cynomolgus properdin [2] was 1.91e+06 M⁻¹ s⁻¹; in the assay with human properdin [3], 1.72e+06 M⁻¹ s⁻¹.

B3: AB008 (VHH)
VHH: QVQLVESGGGLRQTGESLRLSCTASGRIFEVNMMAWYRQAPGKQRELVAEISRVGTTTYADSVKGRFTISRDSAKNTVTLQMNSLKSEDTAVYYCNALQYDRYGGAEYWGQGTQVTVSG
notes: Llama VHH, cloned and expressed with a 6x histidine tag; also called anti-properdin VHH AB008
In the assay with human properdin [7], B3 gave a Kd of 0.803 nM, a koff of 0.00169 s⁻¹ and a kon of 2.11e+06 M⁻¹ s⁻¹.

B4: AB005 (VHH)
VHH: QVQVVESGGGLRQTGGSLRLSCTASGRIFEVNMMAWYRQAPGKQRELVAEISRVGTTVYADSVKGRFTISRDSAKNTVTLQMNSLKSEDTAVYYCNALQYDRYGGAEYWGQGTQVTVSS
On to B4, for which, in the assay with human properdin [8], the “IC50 (read off the curve)” value is roughly 20 nM.

B5: AB006 (VHH)
VHH: QVQLAESGGGLVQAGDSLKLSCTASGRIFEVNMMAWYRQAPGKDRELVAEISRVGTTTYADSVKGRFTISRDSAKNTVTLQMNSLKSEDTAVYYCNALQYSRYGGAEYWGQGTQVTVSG
B5: in the assay with human properdin [8], the “IC50 (read off the curve)” value is roughly 30 nM.

B6: TPP-3071 (anti-Albumin LVP058 (G4D)2 (G4) Linker) (bispecific antibody)
chain: EVQLVESGGGLVKPGGSLRLSCAASGRPVSNYAAAWFRQAPGKEREFVSAINWQKTATYADSVKGRFTISRDNAKNSLYLQMNSLRAEDTAVYYCAAVFRVVAPKTQYDYDYWGQGTLVTVSSGGGGDGGGGDGGGGEVQLVESGGGLVQAGGSLRLSCAASGRISSIIHMAWYRQAPGKQRELVAEISRVGTTVYADSVKGRFTISRDDAKNTVTLQMNSLKPEDTAVYYCNALQYEKHGGADYWGQGTQVTVSS
notes: Single chain: anti-albumin VHH, (G4D)2 G4 linker, non-humanized LVP058
As to B6, the binding result with human properdin [9] is given as “binds”.

B7: TPP-3072 (anti-Albumin LVP058 (G4E)2 (G4) Linker) (bispecific antibody)
chain: EVQLVESGGGLVKPGGSLRLSCAASGRPVSNYAAAWFRQAPGKEREFVSAINWQKTATYADSVKGRFTISRDNAKNSLYLQMNSLRAEDTAVYYCAAVFRVVAPKTQYDYDYWGQGTLVTVSSGGGGEGGGGEGGGGEVQLVESGGGLVQAGGSLRLSCAASGRISSIIHMAWYRQAPGKQRELVAEISRVGTTVYADSVKGRFTISRDDAKNTVTLQMNSLKPEDTAVYYCNALQYEKHGGADYWGQGTQVTVSS
B7: in the assay with human properdin [1], the “IC50 (read off the curve)” value is roughly 20 nM.

B8: TPP-2225 (anti-Albumin LVP058 (G4S)3 Linker) (bispecific antibody)
chain: EVQLVESGGGLVKPGGSLRLSCAASGRPVSNYAAAWFRQAPGKEREFVSAINWQKTATYADSVKGRFTISRDNAKNSLYLQMNSLRAEDTAVYYCAAVFRVVAPKTQYDYDYWGQGTLVTVSSGGGGSGGGGSGGGGSLEVQLVESGGGLVQAGGSLRLSCAASGRISSIIHMAWYRQAPGKQRELVAEISRVGTTVYADSVKGRFTISRDDAKNTVTLQMNSLKPEDTAVYYCNALQYEKHGGADYWGQGTQVTVSS
notes: Single chain: anti-albumin VHH, (G4S)3 linker, non-humanized anti-properdin VHH LVP058; also called anti-Alb-LVP058
With B8, the Kd was found to be 2.3 nM in the assay with Cynomolgus Albumin [10]; 2.57 nM with human properdin [11]; 0.646 nM with Human Albumin [12]; 1.98 nM with cynomolgus properdin [4]; 7.07 nM in the assay with Cynomolgus Albumin [13]; 0.172 nM with human properdin [5]. Moreover, the Kd was determined as 0.774 nM with Human Albumin [14] and 0.172 nM in the assay with human properdin [6]. In addition, the “IC50 (read off the curve)” value with human properdin [15] is roughly 10 nM. The same molecule gave a koff in the assay with human properdin [6] of 0.000349 s⁻¹. Further, in the assay with human properdin [6], the on-rate (kon) was 2.03e+06 M⁻¹ s⁻¹.

B9: TPP-2224 (LVP058 (G4S)3-anti-Alb-tandem VHH) (bispecific antibody)
chain: LEVQLVESGGGLVQAGGSLRLSCAASGRISSIIHMAWYRQAPGKQRELVAEISRVGTTVYADSVKGRFTISRDDAKNTVTLQMNSLKPEDTAVYYCNALQYEKHGGADYWGQGTQVTVSSGGGGSGGGGSGGGGSEVQLVESGGGLVKPGGSLRLSCAASGRPVSNYAAAWFRQAPGKEREFVSAINWQKTATYADSVKGRFTISRDNAKNSLYLQMNSLRAEDTAVYYCAAVFRVVAPKTQYDYDYWGQGTLVTVSS
For B9, in the assay with human properdin [15], the “IC50 (read off the curve)” value was roughly 20 nM.

B10: TPP-2221 (LVP058_hG2-G4, VHH on silent human Fc) (Fc fusion)
chain: LEVQLVESGGGLVQAGGSLRLSCAASGRISSIIHMAWYRQAPGKQRELVAEISRVGTTVYADSVKGRFTISRDDAKNTVTLQMNSLKPEDTAVYYCNALQYEKHGGADYWGQGTQVTVSSRKCCVECPPCPAPPVAGPSVFLFPPKPKDTLMISRTPEVTCVVVDVSQEDPEVQFNWYVDGVEVHNAKTKPREEQFNSTYRVVSVLTVLHQDWLNGKEYKCKVSNKGLPSSIEKTISKAKGQPREPQVYTLPPSQEEMTKNQVSLTCLVKGFYPSDIAVEWESNGQPENNYKTTPPVLDSDGSFFLYSRLTVDKSRWQEGNVFSCSVMHEALHNHYTQKSLSLSLGK
B10: the “IC50 (read off the curve)” value with human properdin [15] is roughly 10 nM.

B11: AB007 (VHH)
VHH: QVQLVESGGGLVQAGGSLRLSCAASGRISSIIHMAWYRQAPGKQRELVAEISRVGTTVYADSVKGRFTISRDDAKNTVTLQMNSLKPEDTAVYYCNALQYEKHGGADYWGQGTQVTVSG
notes: Llama VHH, cloned and expressed with a 6x histidine tag; also called anti-properdin VHH AB007
With B11, in the assay with human properdin [7], the dissociation constant (Kd) worked out at 0.344 nM, the koff came to 0.000359 s⁻¹ and the on-rate constant (kon) turned out to be 1.04e+06 M⁻¹ s⁻¹.

B12: TPP-2223 (Anti-properdin control antibody without C1q binding domain) (antibody, human IgG1, kappa, V domains shown)
VH: QVQLVQSGAEVKKPGASVKVSCKASGYIFTNYPIHWVRQAPGQGLEWMGFIDPGGGYDEPDERFRDRVTMTRDTSTSTVYMELSSLRSEDTAVYYCARRGGGYYLDYWGQGTLVTVSS
VL: DIQMTQSPSSLSASVGDRVTITCRASQDISFFLNWYQQKPGKAPKLLIYYTSRYHSGVPSRFSGSGSGTDFTLTISSLQPEDFATYYCQHGNTLPWTFGQGTKVEIKR
For B12, the “IC50 (read off the curve)” value with human properdin [15] was roughly 9 nM.

(Values after patent US20190352381A1 (Alexion, published 2019).)
